Results taken from the supplement of paper PMC10567573.

B1: PLAGL1 (parent)
chain: EKPPSGTKEKKHQCDHCERCFYTR
B2: RIPK4 (parent)
chain: AAWQGHLPIVKLLAKQPGVSVNAQ

Variants of: B1
Experiment: protein stability index of a GFP-peptide fusion (GPS, HEK-293T) (PSI 1-6); higher = more stable
Details: c terminus: a fixed tail appended
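Note: lentivirally expressed fusions sorted by FACS into six bins by GFP to DsRed ratio, PSI derived from sequencing read proportions per bin multiplied by bin number.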

Protein stability index of substitutions, site by site:
R19: K 4; H 4.21; C 3.3; S 3.9; E 4.54; T 3.52; V 3.39; P 3.3; F 3.69; N 4.36; Q 4.34; I 3.52; W 3.29; A 4.31; Y 3.79; D 4.91; L 3.45; G 3.24; M 3.83
R24: S 4.33; N 4.55; K 4.74; E 4.67; T 4.93; W 4.29; I 4.37; A 4.68; H 4.67; F 4.35; M 4.68; G 4.24; P 4.9; D 5.07; Q 5.28; C 4.61; L 4.29; Y 3.96; V 4.07
F21: E 4.11; Y 4.37; K 4.39; V 3.95; G 4.32; P 3.75; R 4.15; I 4.52; D 4.34; Q 5.02; A 4.06; L 4.08; S 4.22; C 3.88; M 4.75; H 3.51; N 4.33; T 4.26
E18: S 2.42; D 3.12; A 3.18; K 2.58; Q 2.45; G 3.22; C 2.69; R 2.79; M 2.6; H 3.33; T 3.62; W 3.41; L 2.87; P 4.7; V 4.66; F 2.61; Y 2.92; I 2.63; N 2.94
C17: T 3.48; V 4.05; R 3.15; W 3.13; Y 3.15; S 3.63; Q 3.9; P 4.33
T23: H 3.86; R 3.4; G 4.1; S 3.79; N 2.86; E 5.09; F 3.97; W 4.12; P 3.64; K 3.99; D 4.63; V 4.11; C 4.64; Y 3.83; A 3.89; I 4.03; Q 4.01; M 4.34; L 4.64
C20: N 2.6; Y 2.66; K 3.58; H 2.58; T 3.04; D 2.59; M 2.23; W 2.35; A 2.48; Q 2.37; P 3.07; I 2.68; G 2.5; R 1.98; F 2.56; S 1.74; E 3.37; V 3.06; L 2.95
Y22: S 4.17; A 4.25; Q 4.21; F 3.35; G 4.03; W 3.18; R 4.3; K 4.45; H 4.13; C 4.84; M 4.37; P 4.05; E 4.67; T 3.89; I 4.17; L 4.35; N 4.22; V 3.69; D 4.58

Variants of: B2
Experiment: as above
Details: c terminus: a fixed tail appended

Protein stability index: each site, then its substitutions
A2: E 2.69; G 2.27; C 2.19; K 2.37; N 3.16; H 2.8; M 2.73; L 2.38; Q 2.62; F 2.15; I 1.66; D 3.76; P 3.69
A1: I 1.95; E 2.24; K 2.25; S 2.56; M 1.98; F 3.12; C 2.18; P 2.81; H 2.77; N 2.35; G 1.34; T 2.22; L 1.05; D 3.41
